From patent US20240124607A1 (Merck Sharp & Dohme, published 2024) come the findings set out here.

What all share (test): SPR, 37C, pH 7.4; reference E398
One experiment concerns the target T1, Human CEACAM5 (K398) (human, UniProt P06731 35-685, limits assumed).
T1 construct: also called K398 allele
T1 sequence: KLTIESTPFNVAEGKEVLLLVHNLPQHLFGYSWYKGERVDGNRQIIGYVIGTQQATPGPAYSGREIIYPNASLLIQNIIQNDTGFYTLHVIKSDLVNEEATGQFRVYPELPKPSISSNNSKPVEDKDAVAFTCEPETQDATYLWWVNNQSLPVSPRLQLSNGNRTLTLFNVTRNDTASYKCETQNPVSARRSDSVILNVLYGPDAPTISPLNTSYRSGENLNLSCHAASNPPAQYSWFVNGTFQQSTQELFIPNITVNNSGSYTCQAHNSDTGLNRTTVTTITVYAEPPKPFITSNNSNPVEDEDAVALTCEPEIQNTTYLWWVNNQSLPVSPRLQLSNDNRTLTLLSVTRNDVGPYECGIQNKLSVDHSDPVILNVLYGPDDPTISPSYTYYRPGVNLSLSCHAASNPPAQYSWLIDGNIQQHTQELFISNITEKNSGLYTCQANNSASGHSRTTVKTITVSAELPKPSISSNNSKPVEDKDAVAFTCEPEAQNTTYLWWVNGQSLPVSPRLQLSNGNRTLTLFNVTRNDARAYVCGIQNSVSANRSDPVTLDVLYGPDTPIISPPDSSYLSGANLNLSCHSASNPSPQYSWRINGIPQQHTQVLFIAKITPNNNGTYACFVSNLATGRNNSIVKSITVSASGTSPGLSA

The target of experiment [1] is T2, Human CEACAM5 I80V V83A I112V I113T (human, UniProt P06731 35-685, limits assumed).
T2 chain: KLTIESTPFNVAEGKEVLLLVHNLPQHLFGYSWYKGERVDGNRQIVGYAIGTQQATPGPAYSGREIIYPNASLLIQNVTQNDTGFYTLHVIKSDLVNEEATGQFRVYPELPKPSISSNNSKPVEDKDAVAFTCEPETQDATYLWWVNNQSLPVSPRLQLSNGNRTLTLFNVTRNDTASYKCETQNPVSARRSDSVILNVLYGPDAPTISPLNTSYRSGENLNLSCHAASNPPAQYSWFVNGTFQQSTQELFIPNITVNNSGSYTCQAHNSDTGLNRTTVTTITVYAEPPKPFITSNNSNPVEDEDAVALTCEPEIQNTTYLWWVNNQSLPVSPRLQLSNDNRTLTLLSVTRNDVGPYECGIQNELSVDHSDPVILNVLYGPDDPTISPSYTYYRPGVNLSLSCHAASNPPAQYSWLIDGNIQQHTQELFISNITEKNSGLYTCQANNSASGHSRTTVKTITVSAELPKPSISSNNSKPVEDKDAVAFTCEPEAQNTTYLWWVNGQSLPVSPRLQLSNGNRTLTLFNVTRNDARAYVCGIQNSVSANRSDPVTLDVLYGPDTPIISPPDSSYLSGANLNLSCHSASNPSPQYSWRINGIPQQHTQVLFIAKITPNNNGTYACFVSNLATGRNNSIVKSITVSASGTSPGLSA

A further experiment concerns the target T3, Human CEACAM5 I113T (human, UniProt P06731 35-685, limits assumed).
T3 sequence: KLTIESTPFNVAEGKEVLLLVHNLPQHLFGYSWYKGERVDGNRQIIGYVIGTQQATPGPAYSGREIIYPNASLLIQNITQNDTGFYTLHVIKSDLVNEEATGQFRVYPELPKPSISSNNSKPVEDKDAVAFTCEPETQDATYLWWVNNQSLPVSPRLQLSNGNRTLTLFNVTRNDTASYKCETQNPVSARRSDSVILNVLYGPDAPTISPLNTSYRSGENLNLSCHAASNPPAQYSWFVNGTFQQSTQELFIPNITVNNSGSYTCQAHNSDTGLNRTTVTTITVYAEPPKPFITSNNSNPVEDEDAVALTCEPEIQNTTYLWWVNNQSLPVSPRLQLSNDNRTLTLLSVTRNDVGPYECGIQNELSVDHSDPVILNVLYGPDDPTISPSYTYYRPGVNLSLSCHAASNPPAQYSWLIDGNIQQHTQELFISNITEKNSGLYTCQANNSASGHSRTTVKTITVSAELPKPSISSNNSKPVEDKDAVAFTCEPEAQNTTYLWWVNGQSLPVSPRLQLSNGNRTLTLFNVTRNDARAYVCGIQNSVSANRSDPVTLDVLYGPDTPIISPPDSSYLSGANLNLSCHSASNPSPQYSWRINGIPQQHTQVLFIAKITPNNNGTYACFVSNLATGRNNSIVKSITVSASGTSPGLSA

For a further experiment, the target named is T4, Human CEACAM5 (E398) (human, UniProt P06731 35-685, limits assumed).
T4 construct: also called hCEACAM5
T4 sequence: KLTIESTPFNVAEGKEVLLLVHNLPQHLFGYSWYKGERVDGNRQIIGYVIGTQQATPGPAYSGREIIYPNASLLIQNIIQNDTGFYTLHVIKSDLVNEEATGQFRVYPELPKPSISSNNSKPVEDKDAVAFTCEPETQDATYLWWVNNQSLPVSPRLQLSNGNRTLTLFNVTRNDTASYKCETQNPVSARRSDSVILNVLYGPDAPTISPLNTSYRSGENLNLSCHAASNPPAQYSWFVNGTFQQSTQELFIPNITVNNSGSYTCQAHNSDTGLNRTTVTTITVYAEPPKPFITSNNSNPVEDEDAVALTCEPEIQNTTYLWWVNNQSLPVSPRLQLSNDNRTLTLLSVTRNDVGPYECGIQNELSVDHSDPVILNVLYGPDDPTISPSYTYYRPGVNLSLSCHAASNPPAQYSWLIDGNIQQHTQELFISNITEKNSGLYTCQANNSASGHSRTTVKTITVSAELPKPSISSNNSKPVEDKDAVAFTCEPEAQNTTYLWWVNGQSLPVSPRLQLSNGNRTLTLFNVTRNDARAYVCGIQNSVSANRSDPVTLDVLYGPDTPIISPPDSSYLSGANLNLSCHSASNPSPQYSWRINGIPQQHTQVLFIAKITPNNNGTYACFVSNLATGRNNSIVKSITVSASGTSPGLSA

B1: AB0466 F3' CEACAM5 TriNKET (bispecific antibody, human IgG1, kappa)
chain: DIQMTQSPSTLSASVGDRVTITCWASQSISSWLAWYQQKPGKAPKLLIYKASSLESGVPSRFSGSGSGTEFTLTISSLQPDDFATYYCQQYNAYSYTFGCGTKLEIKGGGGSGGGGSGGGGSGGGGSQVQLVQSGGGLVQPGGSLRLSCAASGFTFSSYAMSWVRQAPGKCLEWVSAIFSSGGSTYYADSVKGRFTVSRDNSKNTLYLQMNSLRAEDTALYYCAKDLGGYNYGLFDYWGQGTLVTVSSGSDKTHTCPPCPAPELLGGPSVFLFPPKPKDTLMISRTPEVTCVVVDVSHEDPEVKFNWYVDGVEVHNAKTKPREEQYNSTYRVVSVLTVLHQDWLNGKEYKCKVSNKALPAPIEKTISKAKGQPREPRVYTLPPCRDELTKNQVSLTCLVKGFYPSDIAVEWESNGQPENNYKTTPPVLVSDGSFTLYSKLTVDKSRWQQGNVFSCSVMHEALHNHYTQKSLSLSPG
heavy: EVQLVESGGGLVKPGGSLRLSCAASGFTFSSYSMNWVRQAPGKGLEWVSSISSSSSYIYYADSVKGRFTISRDNAKNSLYLQMNSLRAEDTAVYYCARGAPIGAAAGWFDPWGQGTLVTVSSASTKGPSVFPLAPSSKSTSGGTAALGCLVKDYFPEPVTVSWNSGALTSGVHTFPAVLQSSGLYSLSSVVTVPSSSLGTQTYICNVNHKPSNTKVDKKVEPKSCDKTHTCPPCPAPELLGGPSVFLFPPKPKDTLMISRTPEVTCVVVDVSHEDPEVKFNWYVDGVEVHNAKTKPREEQYNSTYRVVSVLTVLHQDWLNGKEYKCKVSNKALPAPIEKTISKAKGQPREPQVCTLPPSRDELTENQVSLTCLVKGFYPSDIAVEWESNGQPENNYKTTPPVLDSDGSFFLYSWLTVDKSRWQQGNVFSCSVMHEALHNHYTQKSLSLSPG
light: DIQMTQSPSSVSASVGDRVTITCRASQGISSWLAWYQQKPGKAPKLLIYAASSLQSGVPSRFSGSGSGTDFTLTISSLQPEDFATYYCQQGVSFPRTFGGGTKVEIKRTVAAPSVFIFPPSDEQLKSGTASVVCLLNNFYPREAKVQWKVDNALQSGNSQESVTEQDSKDSTYSLSSTLTLSKADYEKHKVYACEVTHQGLSSPVTKSFNRGEC
B1: the “KD/KD(Ref)” value with Human CEACAM5 (K398) was found to be 0.9 fold; in experiment [1], 8.5 fold; in the experiment with Human CEACAM5 I113T, 1.2 fold; in the experiment with Human CEACAM5 (E398), 1 fold.

B2: AB0411 F3' CEACAM5 TriNKET (bispecific antibody, human IgG1, kappa)
chain: DIQLTQSPATLSVSPGERATLSCRASQSVSSSYLAWYQQKPGQAPRLLIYGASSRATGIPDRFSGSGSGTDFTLTISRLEPEDFAVYYCQQYNNWPLTFGCGTKVEIKGGGGSGGGGSGGGGSGGGGSQVQLVQSGGGLVQPGGSLRLSCAASGFTFTSYAMSWVRQAPGKCLEWVSAISGTGDSTFYADSVKGRFTFSRDNSKNTLYLQMNSLRAEDTAVYYCAKDLGWLQYGLFDYWGQGTLVTVSSGSDKTHTCPPCPAPELLGGPSVFLFPPKPKDTLMISRTPEVTCVVVDVSHEDPEVKFNWYVDGVEVHNAKTKPREEQYNSTYRVVSVLTVLHQDWLNGKEYKCKVSNKALPAPIEKTISKAKGQPREPRVYTLPPCRDELTKNQVSLTCLVKGFYPSDIAVEWESNGQPENNYKTTPPVLVSDGSFTLYSKLTVDKSRWQQGNVFSCSVMHEALHNHYTQKSLSLSPG
heavy: EVQLVESGGGLVKPGGSLRLSCAASGFTFSSYSMNWVRQAPGKGLEWVSSISSSSSYIYYADSVKGRFTISRDNAKNSLYLQMNSLRAEDTAVYYCARGAPIGAAAGWFDPWGQGTLVTVSSASTKGPSVFPLAPSSKSTSGGTAALGCLVKDYFPEPVTVSWNSGALTSGVHTFPAVLQSSGLYSLSSVVTVPSSSLGTQTYICNVNHKPSNTKVDKKVEPKSCDKTHTCPPCPAPELLGGPSVFLFPPKPKDTLMISRTPEVTCVVVDVSHEDPEVKFNWYVDGVEVHNAKTKPREEQYNSTYRVVSVLTVLHQDWLNGKEYKCKVSNKALPAPIEKTISKAKGQPREPQVCTLPPSRDELTENQVSLTCLVKGFYPSDIAVEWESNGQPENNYKTTPPVLDSDGSFFLYSWLTVDKSRWQQGNVFSCSVMHEALHNHYTQKSLSLSPG
light: DIQMTQSPSSVSASVGDRVTITCRASQGISSWLAWYQQKPGKAPKLLIYAASSLQSGVPSRFSGSGSGTDFTLTISSLQPEDFATYYCQQGVSFPRTFGGGTKVEIKRTVAAPSVFIFPPSDEQLKSGTASVVCLLNNFYPREAKVQWKVDNALQSGNSQESVTEQDSKDSTYSLSSTLTLSKADYEKHKVYACEVTHQGLSSPVTKSFNRGEC
Consider B2, for which the “KD/KD(Ref)” value with Human CEACAM5 (K398) came to 0.9 fold; in experiment [1], 3.9 fold; with Human CEACAM5 I113T, 1.1 fold; with Human CEACAM5 (E398), 1 fold.

B3: AB0621 F3' CEACAM5 TriNKET (bispecific antibody, human IgG1, kappa)
chain: DIVMTQSPDSLAVSLGERATINCKSSHSLLYGNFQNNYLAWYQQKPGQPPKLLIYWASTRESGVPDRFSGSGSGTDFTLTISSLQAEDVAVYYCQQYYSYPYTFGCGTKLEIKGGGGSGGGGSGGGGSGGGGSQVQLVQSGAEVKKPGASVKVSCKASGYTFTAYTIHWVRQAPGQCLEWMGYINPSSGYTEYNQKFKDRTTLTADTSISTAYMELSRLRSDDTAVYYCTREGGLLWFDYWGQGTLVTVSSGSDKTHTCPPCPAPELLGGPSVFLFPPKPKDTLMISRTPEVTCVVVDVSHEDPEVKFNWYVDGVEVHNAKTKPREEQYNSTYRVVSVLTVLHQDWLNGKEYKCKVSNKALPAPIEKTISKAKGQPREPRVYTLPPCRDELTKNQVSLTCLVKGFYPSDIAVEWESNGQPENNYKTTPPVLVSDGSFTLYSKLTVDKSRWQQGNVFSCSVMHEALHNHYTQKSLSLSPG
heavy: EVQLVESGGGLVKPGGSLRLSCAASGFTFSSYSMNWVRQAPGKGLEWVSSISSSSSYIYYADSVKGRFTISRDNAKNSLYLQMNSLRAEDTAVYYCARGAPIGAAAGWFDPWGQGTLVTVSSASTKGPSVFPLAPSSKSTSGGTAALGCLVKDYFPEPVTVSWNSGALTSGVHTFPAVLQSSGLYSLSSVVTVPSSSLGTQTYICNVNHKPSNTKVDKKVEPKSCDKTHTCPPCPAPELLGGPSVFLFPPKPKDTLMISRTPEVTCVVVDVSHEDPEVKFNWYVDGVEVHNAKTKPREEQYNSTYRVVSVLTVLHQDWLNGKEYKCKVSNKALPAPIEKTISKAKGQPREPQVCTLPPSRDELTENQVSLTCLVKGFYPSDIAVEWESNGQPENNYKTTPPVLDSDGSFFLYSWLTVDKSRWQQGNVFSCSVMHEALHNHYTQKSLSLSPG
light: DIQMTQSPSSVSASVGDRVTITCRASQGISSWLAWYQQKPGKAPKLLIYAASSLQSGVPSRFSGSGSGTDFTLTISSLQPEDFATYYCQQGVSFPRTFGGGTKVEIKRTVAAPSVFIFPPSDEQLKSGTASVVCLLNNFYPREAKVQWKVDNALQSGNSQESVTEQDSKDSTYSLSSTLTLSKADYEKHKVYACEVTHQGLSSPVTKSFNRGEC
Consider B3, for which the “KD/KD(Ref)” value worked out at 1.1 fold with Human CEACAM5 (K398), 1.3 fold in experiment [1], 1.7 fold in the experiment with Human CEACAM5 I113T and 1 fold with Human CEACAM5 (E398).
